Reference: patent publication US20170081400A1 (CEPHALON, published 2017)

Assays:
[1] = molecular target: T1, human TL1A extracellular domain with N-terminal HIS and FLAG tag (human, UniProt O95150 72-251); assay: SPR run 3; supernatant on Protein A; TL1A 10 ug/mL; timepoint 59
T1 construct: whole entry named. ~70 kDa fraction purified by gel filtration
T1 sequence: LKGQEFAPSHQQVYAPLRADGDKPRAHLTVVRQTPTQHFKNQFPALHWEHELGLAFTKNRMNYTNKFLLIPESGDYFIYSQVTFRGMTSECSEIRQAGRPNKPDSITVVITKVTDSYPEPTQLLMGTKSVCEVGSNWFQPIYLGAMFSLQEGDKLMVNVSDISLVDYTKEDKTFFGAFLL
Source text: (§1) 1.5. Antibody expression and antigen binding as determined by SPR. Using a CM5 sensor chip (GE Healthcare) Protein A (Pierce) was coupled to the chip surface using an amine coupling kit (GE Healthcare). Protein A was coupled on flow cell 1 and 2 (or alternatively 3 and 4) using a BIACORE® T200. […] The amount of supernatant or purified protein (as well as the concentration) injected during the capture stage varied between runs and is specified in the header of the Tables 3-11. At the end of injection of the supernatant or purified antibody the change in response units was measured. This value was reported as Capture Level in Tables 3-11. […] The response units were measured prior to the end of the dissociation phase. […] The sensorgrams were double referenced (flow cell 2 is subtracted from flow cell 1 and a buffer blank). As there were a large number of antibody variants to screen, these were screened across different runs (Tables 3-11). […] A summary of the conditions used in each run is below:
(§2) 2.1. […] In some experiment the antibodies were purified using Protein A chromatography (See 1.4) and purified antibodies were used in BIACORE® (GE Healthcare) experiments.

[2] = molecular target: T1, human TL1A extracellular domain with …; assay: SPR run 3; supernatant on Protein A; TL1A 10 ug/mL; timepoint 590
Source text: as §1, §2

[3] = molecular target: T2, human TL1A extracellular domain with N-terminal HIS and FLAG tag (human) (UniProt O95150); assay: cell-based or functional assay
T2 sequence: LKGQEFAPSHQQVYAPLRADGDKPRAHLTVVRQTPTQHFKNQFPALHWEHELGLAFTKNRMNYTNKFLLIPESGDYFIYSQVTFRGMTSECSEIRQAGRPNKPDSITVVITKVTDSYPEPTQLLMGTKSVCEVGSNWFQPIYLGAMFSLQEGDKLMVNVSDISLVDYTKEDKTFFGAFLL

[4] = molecular target: T3, human TL1A extracellular domain with N-terminal HIS and FLAG tag (human, UniProt O95150 72-251); assay: SPR Run 9, antibody on Protein A, TL1A 5 ug/mL, timepoint 590
T3 construct: the whole entry is named; also called TNFSF15
T3 sequence: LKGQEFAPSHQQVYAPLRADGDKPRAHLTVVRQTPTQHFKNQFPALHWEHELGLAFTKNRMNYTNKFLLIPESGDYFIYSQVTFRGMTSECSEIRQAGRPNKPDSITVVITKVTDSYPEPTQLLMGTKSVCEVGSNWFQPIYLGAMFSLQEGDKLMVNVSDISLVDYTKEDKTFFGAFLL
Source text: as §1, §2

[5] = molecular target: T3, human TL1A extracellular domain with …; assay: SPR Run 9, antibody on Protein A, TL1A 5 ug/mL, timepoint 44
Source text: as §1, §2

Row | Binder | TL1A Binding Level (Early) [1] | TL1A Binding Level (Late) [2] | Antibody IC50, TL1A induced caspase potency assay in TF-1 cells [3] | Fold improvement over 320-179, TL1A induced caspase potency assay in TF-1 cells [3] | TL1A Binding Level (Late) [4] | TL1A Binding Level (Early) [5]
1 | 320-263 (antibody, human IgG1, name in Kabat numbering, V domains shown, human IgG1, lambda) VH: QVQLVQSGAEVKKPGASVKVSCKASGYTFTSYDINWVRQAPGQGLEWMGWLNPNSGNTGYAQKFQGRVTMTADRSTSTAYMELSSLRSEDTAVYYCAREVPETAAFEYWGQGTLVTVSS VL: QSVLTQPPSVSGAPGQRVTISCTSSSSDIGKGLGVHWYQQLPGTAPKLLIEGYYNRPSGVPDRFSGSKSGTSASLTITGLLPEDEGDYYCQSYDGTLSALFGGGTKLTVLG | 121 RU | 123 RU | 3 ng/mL | 3 fold | – | –
2 | 320-280 (antibody, human IgG1, name in Kabat numbering, V domains shown, human IgG1, lambda) VH: QVQLVQSGAEVKKPGASVKVSCKASGYTFTSYDINWVRQAPGQGLEWMGWLNPNSGNTGYAQKFQGRVTMTADRSTSTAYMELSSLRSEDTAVYYCAREVPETAAFEYWGQGTLVTVSS VL: QSVLTQPPSVSGAPGQRVTISCTSSSSDIGAGHGVHWYQQLPGTAPKLLIEGYYNRPSGVPDRFSGSKSGTSASLTITGLLPEDEGDYYCQSYDGTLSALFGGGTKLTVLG | 228 RU | 211 RU | 6 ng/mL | 3 fold | – | –
3 | 320-297 (antibody, human IgG1, name in Kabat numbering, V domains shown, human IgG1, lambda) VH: QVQLVQSGAEVKKPGASVKVSCKASGYTFTSYDINWVRQAPGQGLEWMGWLNPNSGNTGYAQKFQGRVTMTADRSTSTAYMELSSLRSEDTAVYYCAREVPETAAFEYWGQGTLVTVSS VL: QSVLTQPPSVSGAPGQRVTISCTSSSSDIGAGLGHHWYQQLPGTAPKLLIEGYYNRPSGVPDRFSGSKSGTSASLTITGLLPEDEGDYYCQSYDGTLSALFGGGTKLTVLG | 95 RU | 77 RU | 5 ng/mL | 4 fold | – | –
4 | 320-302 (antibody, human IgG1, name in Kabat numbering, V domains shown, human IgG1, lambda) VH: QVQLVQSGAEVKKPGASVKVSCKASGYTFTSYDINWVRQAPGQGLEWMGWLNPNSGNTGYAQKFQGRVTMTADRSTSTAYMELSSLRSEDTAVYYCAREVPETAAFEYWGQGTLVTVSS VL: QSVLTQPPSVSGAPGQRVTISCTSSSSDIGAGLGVAWYQQLPGTAPKLLIEGYYNRPSGVPDRFSGSKSGTSASLTITGLLPEDEGDYYCQSYDGTLSALFGGGTKLTVLG | 99 RU | 74 RU | 10 ng/mL | 2 fold | – | –
5 | 320-307 (antibody, human IgG1, name in Kabat numbering, V domains shown, human IgG1, lambda) VH: QVQLVQSGAEVKKPGASVKVSCKASGYTFTSYDINWVRQAPGQGLEWMGWLNPNSGNTGYAQKFQGRVTMTADRSTSTAYMELSSLRSEDTAVYYCAREVPETAAFEYWGQGTLVTVSS VL: QSVLTQPPSVSGAPGQRVTISCTSSSSDIGAGLGVLWYQQLPGTAPKLLIEGYYNRPSGVPDRFSGSKSGTSASLTITGLLPEDEGDYYCQSYDGTLSALFGGGTKLTVLG | 216 RU | 200 RU | 10 ng/mL | 4 fold | – | –
6 | 320-596 (antibody, human IgG1, name in Kabat numbering, V domains shown, full-length human IgG1, lambda) VH: QVQLVQSGAEVKKPGASVKVSCKASGYTFTSYDINWVRQAPGQGLEWMGWLNPNSGNTGYAQKFQGRVTMTADRSTSTAYMELSSLRSEDTAVYYCAREVPETAAFEYWGQGTLVTVSS VL: QSVLTQPPSVSGAPGQRVTISCTSSSSDIGAGLGVHWYQQLPGTAPKLLIEGYYNRPSGVPDRFSGSKSGTSASLTITGLLPEDEGDYYCQSFDGTLSALFGGGTKLTVLG | – | – | – | – | 85 RU | 95 RU
7 | 320-597 (antibody, human IgG1, name in Kabat numbering, V domains shown, full-length human IgG1, lambda) VH: QVQLVQSGAEVKKPGASVKVSCKASGYTFTSYDINWVRQAPGQGLEWMGWLNPNSGNTGYAQKFQGRVTMTADRSTSTAYMELSSLRSEDTAVYYCAREVPETAAFEYWGQGTLVTVSS VL: QSVLTQPPSVSGAPGQRVTISCTSSSSDIGAGQGVHWYQQLPGTAPKLLIEGYYNRPSGVPDRFSGSKSGTSASLTITGLLPEDEGDYYCQSFDGTLSALFGGGTKLTVLG | – | – | – | – | 105 RU | 115 RU
8 | 320-598 (antibody, human IgG1, name in Kabat numbering, V domains shown, full-length human IgG1, lambda) VH: QVQLVQSGAEVKKPGASVKVSCKASGYTFTSYDINWVRQAPGQGLEWMGWLNPNSGNTGYAQKFQGRVTMTADRSTSTAYMELSSLRSEDTAVYYCAREVPETAAFEYWGQGTLVTVSS VL: QSVLTQPPSVSGAPGQRVTISCTSSSSDIGAGLGVLWYQQLPGTAPKLLIEGYYNRPSGVPDRFSGSKSGTSASLTITGLLPEDEGDYYCQSFDGTLSALFGGGTKLTVLG | – | – | – | – | 101 RU | 112 RU
9 | 320-599 (antibody, human IgG1, name in Kabat numbering, V domains shown, full-length human IgG1, lambda) VH: QVQLVQSGAEVKKPGASVKVSCKASGYTFTSYDINWVRQAPGQGLEWMGWLNPNSGNTGYAQKFQGRVTMTADRSTSTAYMELSSLRSEDTAVYYCAREVPETAAFEYWGQGTLVTVSS VL: QSVLTQPPSVSGAPGQRVTISCTSSSSDIGAGSGVHWYQQLPGTAPKLLIEGYYNRPSGVPDRFSGSKSGTSASLTITGLLPEDEGDYYCQSFDGTLSALFGGGTKLTVLG | – | – | – | – | 103 RU | 113 RU
10 | 320-600 (antibody, human IgG1, name in Kabat numbering, V domains shown, full-length human IgG1, lambda) VH: QVQLVQSGAEVKKPGASVKVSCKASGYTFTSYDINWVRQAPGQGLEWMGWLNPNSGNTGYAQKFQGRVTMTADRSTSTAYMELSSLRSEDTAVYYCAREVPETAAFEYWGQGTLVTVSS VL: QSVLTQPPSVSGAPGQRVTISCTSSSSDIGAALGVHWYQQLPGTAPKLLIEGYYNRPSGVPDRFSGSKSGTSASLTITGLLPEDEGDYYCQSFDGTLSALFGGGTKLTVLG | – | – | – | – | 104 RU | 111 RU
11 | 320-602 (antibody, human IgG1, name in Kabat numbering, V domains shown, full-length human IgG1, lambda) VH: QVQLVQSGAEVKKPGASVKVSCKASGYTFTSYDINWVRQAPGQGLEWMGWLNPNSGYTGYAQKFQGRVTMTADRSTSTAYMELSSLRSEDTAVYYCAREVPETAAFEYWGQGTLVTVSS VL: QSVLTQPPSVSGAPGQRVTISCTSSSSDIGAGQGVHWYQQLPGTAPKLLIEGYYNRPSGVPDRFSGSKSGTSASLTITGLLPEDEGDYYCQSFDGTLSALFGGGTKLTVLG | – | – | – | – | 125 RU | 131 RU
12 | 320-603 (antibody, human IgG1, name in Kabat numbering, V domains shown, full-length human IgG1, lambda) VH: QVQLVQSGAEVKKPGASVKVSCKASGYTFTSYDINWVRQAPGQGLEWMGWLNPNSGYTGYAQKFQGRVTMTADRSTSTAYMELSSLRSEDTAVYYCAREVPETAAFEYWGQGTLVTVSS VL: QSVLTQPPSVSGAPGQRVTISCTSSSSDIGAGLGVLWYQQLPGTAPKLLIEGYYNRPSGVPDRFSGSKSGTSASLTITGLLPEDEGDYYCQSFDGTLSALFGGGTKLTVLG | – | – | – | – | 118 RU | 126 RU
13 | 320-267 (antibody, human IgG1, V domains shown, human IgG1, lambda) VH: QVQLVQSGAEVKKPGASVKVSCKASGYTFTSYDINWVRQAPGQGLEWMGWLNPNSGNTGYAQKFQGRVTMTADRSTSTAYMELSSLRSEDTAVYYCAREVPETAAFEYWGQGTLVTVSS VL: QSVLTQPPSVSGAPGQRVTISCTSSSSDIGAALGVHWYQQLPGTAPKLLIEGYYNRPSGVPDRFSGSKSGTSASLTITGLLPEDEGDYYCQSYDGTLSALFGGGTKLTVLG | 299 RU | 297 RU | – | – | – | –
14 | 320-277 (antibody, human IgG1, V domains shown, human IgG1, lambda) VH: QVQLVQSGAEVKKPGASVKVSCKASGYTFTSYDINWVRQAPGQGLEWMGWLNPNSGNTGYAQKFQGRVTMTADRSTSTAYMELSSLRSEDTAVYYCAREVPETAAFEYWGQGTLVTVSS VL: QSVLTQPPSVSGAPGQRVTISCTSSSSDIGAGSGVHWYQQLPGTAPKLLIEGYYNRPSGVPDRFSGSKSGTSASLTITGLLPEDEGDYYCQSYDGTLSALFGGGTKLTVLG | 387 RU | 361 RU | – | – | – | –
15 | 320-278 (antibody, human IgG1, V domains shown, human IgG1, lambda) VH: QVQLVQSGAEVKKPGASVKVSCKASGYTFTSYDINWVRQAPGQGLEWMGWLNPNSGNTGYAQKFQGRVTMTADRSTSTAYMELSSLRSEDTAVYYCAREVPETAAFEYWGQGTLVTVSS VL: QSVLTQPPSVSGAPGQRVTISCTSSSSDIGAGQGVHWYQQLPGTAPKLLIEGYYNRPSGVPDRFSGSKSGTSASLTITGLLPEDEGDYYCQSYDGTLSALFGGGTKLTVLG | 389 RU | 374 RU | – | – | – | –
